Protein production data for 19 sequences are collected here from a protein production outcome set (Wang et al. 2014).

The data set can be described thus: label from the status in PepcDB records.
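Further: failed if final PepcDB status was selected cloned or expressed and not failed if soluble or beyond.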

With “MSDAEQPAESETHDHHDHDHEGPGYATPQAAIEAAEPEQTAYVMGLHVGQDVDAPDFLAVVDLDPDSDTYSEIINRVQMPNKGDELHHFGWNACSSSCHMDGLERRHLVIPGQRSSRIHIVDTKERRDPELTKVIEPEEVYEHDLSAPHTVHCIPDGEILISMLGDADGDLPGGFLELNDDFEVQGRWDPPGEIEMNYDYWYQPRQNVMLSTEWAAPKTYYPGFDLDDVEDGKYGQRLNFWDWEDGVIEQTIDLGEDGLIPLEARFLHTPESTHGYVGAALSSNIIHFHESDGRYHAEPVIEFDDREHEGWDMPVPALVTDILISMDDRYLFGSSWLHGEVWMYDISDPSNPRKADSISIGGYFGDIEQVQGRDIVAGPQMLQLSLDGERLYWTTSLFSSWDNQFFPEEAEKGSVMLKADVDPRTGTMSLDRDFLVDFGDLPEGPARAHEIRWPDGDCTSDVWQ”, the protein production entry is “failed”.

In the case of “MSDALSAIPAAVHRNLSDKLYEKRKNAALELENIVKNLTSSGDHDKISKVIEMLIKEFAKSPQANHRKGGLIGLAAVTVGLSTEAAQYLEQIVPPVINSFSDQDSRVRYYACEALYNIAKVVRGDFIIFFNKIFDALCKLSADSDANVQSAAHLLDRLVKDIVTESDQFSIEEFIPLLKERMNVLNPYVRQFLVGWITVLDSVPDIDMLGFLPDFLDGLFNMLSDSSHEIRQQADSALSEFLQEIKNSPSVDYGRMAEILVQRAASPDEFTRLTAITWINEFVKLGGDQLVRYYADILGAILPCISDKEEKIRVVARETNEELRSIHVEPSDGFDVGAILSVARRQLSSEFEATRIEALNWISTLLNKHRTEVLCFLNDIFDTLLKALSDSSDDVVLLVLEVHAGVAKDPQHFRQLIVFLVHNFRADNSLLERRGALIVRRMCVLLDAERVYRELSTILEGEDNLDFASTMVQALNLILLTSPELSKLRELLKGSLVNREGKELFVALYTSWCHSPMAIISLCLLAQAYQHASVVIQSLVEEDINVKFLVQLDKLIRLLETPIFTYLRLQLLEPGRYTWLLKTLYGLLMLLPQQSAAFKILRTRLKTVPTYSFSTGNQIGRATSGVPFSQYKHQNEDGDLEDDNINSSHQGINFAVRLQQFENVQNLHRGQARTRVNYSYHSSSSSTSKEVRRSEEQQQQQQQQQQQQQQQQRPPPSSTSSSVADNNRPPSRTSRKGPGQLQL”, the protein production entry is reported as “not failed”.

Regarding “MSDAQDSRVGSMFGPYHLKRLLGRGGMGEVYEAEHTVKEWTVAVKLMTAEFSKDPVFRERMKREARIAGRLQEPHVVPIHDYGEVDGQMFLEMRLVEGTDLDSVLKRFGPLTPPRAVAIITQIASALDAAHADGVMHRDVKPQNILITRDDFAYLVDFGIASATTDEKLTQLGTAVGTWKYMAPERFSNDEVTYRADIYALACVLHECLTGAPPYRADSAGTLVSSHLMGPIPQPSAIRPGIPKAFDAVVARGMAKKPEDRYASAGDLALAAHEALSDPDQDHAADILRRSQESTLPGTAAVTAQPPTMPTVTPPPIQAAPTGQPSWAPNSGPMPASGPTPTPQYYQGGGWGAPPSGGPSPWAQTPRKTNPWPFVAGAAAVVLVLVLGAIGIWIAIRPKPVQPPQPVAEERLSALLLNSSEVNAVMGSSSMQPGKPITSMDSSPVTVSLPDCQGALYTSQDPVYAGTGYTAINGLISSEPGDNYEHWVNQAVVAFPTADKARAFVQTSADKWKNCAGKTVTVTNKAKTYRWTFADVKGSPPTITVIDTQEGAEGWECQRAMSVANNVVVDVNACGYQITNQAGQIAAKIVDKVNKE”, the protein production result is recorded as “failed”.

For the sequence “MSDATNNAVLVRNLSPEVTKQTLLDFFSFCGEISAVKIRPSVGEGGSSSSGSPTEAMEALVIFENQSAKKTALVLDSATLKKRKISVMDATEELVSSFKDVREVDLARDSTDVPETATARQERLQGLREEFDRAIKRASDKLSDFNEKHRITEKVQEFGDLTKRKTQEINEQYRLTERAREGWQTVREKTRELDERLHLSESARDGWRSLKASVSKIMQKDRGGEVDKA”, the protein production entry is listed as “not failed”.

Turning to “MSDFWENELVEIAAYYSVAVLCLVLFLTVFELVTAYKNWEEIQKGNLAVAMATGGKILGIANVFQHSISQHNSLLQMIGWGVYGFVMLLISYFIFEFLTPRFKIDQEIENDNRAVGFISFVISVGLSFVVAAGI”, the protein production result is “failed”.

Take “MSDHPGPGAVTPELFGVGGDWLAVTAGESGASVFRAADATRYAKCVPAADAAGLEAERDRIAWLSGQGVPGPRVLDWYAGDAGACLVTRAVPGVPADRVGADDLRTAWGAVADAVRRLHEVPVASCPFRRGLDSVVDAARDVVARGAVHPEFLPVEQRLVPPAELLARLTGELARRRDQEAADTVVCHGDLCLPNIVLHPETLEVSGFIDLGRLGAADRHADLALLLANARETWVDEERARFADAAFAERYGIAPDPERLRFYLHLDPLTWG”: the protein production entry is given as “failed”.

With “MSDHRPAARPWANRRRTIMSTTTLPGSTVATLTVTTPSDREVQITRIFDASRPMVFDCWTIPELLKGWLHGPDGWRLAICEIDLRVGGATRYVWQHRDGRSMGMSGAYREIVRPARIVATELFDEDWTGGETVGTVVFTEQAGKTLLTQTVLYASQAARDGALGTGMTRGMGESYAQLDAYLISLQDAAKGAA”, the protein production result was “failed”.

For “MSDILKFSVVIPVYNGSNTVTRAVDSCLKQTTLPWEIIIVNDCSKDNTLDVLIENYQGNNIVKIYSLPKNSGVSVARNLGWDKATGDFIAFLDADDVWHPSKLEVLNELKHGYKDVSCIAHKYTENSLPEEKKIMPKCKILKFRHFLIRNYFNTSCLAVCKCIGERFNETMRYTEDHDLCLRIANKMNIYYIDLPLTSLGRPQLSKGGLSGNQWAMRKGEMKLYFHACKLRWWLFPCLPLFFLFSIAKHLLKLGMRCMK”, the protein production result is given as “failed”.

For the sequence “MSDKKTQTRARILGAATQALLERGAVEPSVGEVMGAAGLTVGGFYAHFQSKDALMLEAFEQLLGKRRELLGELDPGLSGKERRALAAAFYLSRKHRDAQVDAGCPLPATLAEVARLPEGFREVLSRHVEIMVTSLAESPEETDVALADLVLMIGGLALARALGPGELSDRVLRAAKQAVN”, the protein production result is given as “not failed”.

On to “MSDLLFPIISMVLLVLAEAGVLQFTGRQKVDWLDVIFNINSGHMMLWLFRCLEVLCYGLVINHFSLGLFDNAPVILLWLFTILAWDFGFYWLHRWHHEMRPLWAVHVVHHQGEHYNLSLGVRNSWYSSLTSIPFFMLLAMLGVPLQIFLAVSIIHYSWQFFNHNALTPKLGWLEKVLITPSHHRVHHLNQKQYADTNYGGTFLLWDKLFGSYSAGPEYDVGYGVKNSRLSCNPMRESNLPFLRLMGFRSFGKAIEGRYQSSPWAVGAGVILLFMLVLGYIQQYGYGIEFITSEQAVLFVLLAAGSVALGGMSDGQHWGMILWCSVTLSLLYFIVYMCSWSTLLWKGLVGILLAHCLLFVIGVGRKSLRKQYEPV”, for which the protein production result is listed as “failed”.

Consider “MSDLRTVPKHTALLIGLMIFGLFFGAGNLIFPVELGRLAGHSAPVTAAGFLVTAVGIPIVAIISSAVSGCSSVHGMTSRVSSQYATIFTCLLYLTIGPAFAIPRTATVSYEVGVAPFIQGHGPALPIFTIVFFAMTLVAALKPGKLMDWVGRYLTPLFLALLAILIVATLIHPMPTVANRPPQPPYDHQPFMHGFLDGYNTMDALASLAFAIVIIEAINQRGSTGRRDVTHITIRAGLVATIPLTLVYVSLAWLGRTSTLVVPNAANGGVVLAGVSRHYYGTAGQVLIAAIVLVACLKTAIGLVVACAEIFRRMFPAGPSVRSWVVIFSVASAIIANAGLTTIIAWSTPVLMFLYPLAITAIILGLLDPWLGASRLPHRIMTGCVVLAALPDLVRALPIQGSGTRAITHVADMVLPWASDGLGWGLPAIIGLAAGWGASLILGRPRRWGTSS”, for which the protein production result was “failed”.

Take “MSDNYKFFRHDNCEYFPCHKVKDKETFNCLFCYCPLYFLENCGGNKSDFNGVKDCSNCLIPHSKNGYDYIINKIREVNKEKRAKNNLTLEHHHHHH”: the protein production result was “not failed”.

In the case of “MSDPSAKPLQEHILIILDDAGRREVLLTETFYTIGRSPRADIRIKSQFVSRIHAVLVRKSSDDVQAAYRIIDGDEDGQSSVNGLMINGKKVQEHIIQTGDEIVMGPQVSVRYEYRRRDQFGTMPGNEQFDITLIDPGMIDDEEEIPTSVSSSPPEME”, the protein production result is “failed”.

“MSDPYPATEAHAQRAAKSPPKSLLDRLLSLVRREPEDREGIKAILEAAHERELLDAESYAMIKGALAVSERTVADIMVPRSRMDLLDISQPLPQLLATIIETAHSRFPVYEDDRDNIIGILLAKDLLRYMLEPALDIRSLVRPAVFIPEVKRLNVLLREFRASRNHLAIVIDEHGGISGLVTMEDVLEQIVGDIEDEFDEDEEESIFPEGENQWRLTASTDISHFNATFATDLPDDEYDSVGGWLGGQLGRIPRRGDSADHDGLHIEVVRADARRALWLRVRRNAGAQPPASAAE”: the protein production entry is “not failed”.

On to “MSDQDVNPEHISDAQPAGTGLVLPGQTLPTTLYVIPIHNRPFFPAQVLPVIVNEEPWAETLELVAKTDHHSLALFFMDNPPEDPRHFDVNSLPEHGTLVRVHHASREGGKLQFVAQGLSRVRIRGWIKRHRPPFMVEVDYPKTPIDPSDEVKAYGMALINAIKELLPLNPLYSEELKNYLNRFSPNDPSPLTDFAAALTTAPGGELQEVLDTVPILKRMEKVLPLLRKEVEVARLQKELSAEVNRKIGEHQREFFLKEQLKIIQQELGITKDDKSADADEFRARLEGKVLPEQARKRIDEELNKLSILESGSPEYAVTRNYLDWATALPWGVYGKDKLDLKHARKVLDKHHAGLDDIKDRILEFLAVGSFKGEIAGSIVLLVGPPGVGKTSIGKSIAESLGRPFYRFSVGGMRDEAEIKGHRRTYIGALPGKLVQALKEVEVMNPVIMLDEIDKLGASYQGDPASALLETLDPEQNVEFLDHYLDLRLDLSKVLFVCTANTLDSIPGPLLDRMEVIRLSGYISEEKLAIAKRHLWPKQLEKAGVPKGRLSISDAALRAVIEGYAREAGVRQLEKQLGKLVRKSVVKLLEDPESKVKIGPRDLEDYLGMPVFRSEQVLSGIGVITGLAWTSMGGATLPIEATRIHTLNRGFKLTGQLGDVMKESAEIAYSYIGSHLKKYGGDPTFFDQAFVHLHVPEGATPKDGPSAGVTMASALLSLARNQVPKKGVAMTGELTLTGQVLPIGGVREKVIAARRQKIFELILPEANRGHFEELPDYLREGLTVHFAKRYGDVAKVLF”, for which the protein production result is “failed”.

In the case of “MSDRLGIFFSGLCFVHCLATPILLIFLGTNSLASVLETPLFHRLLLLPVLTMAIFQGYYAWKNPQAKLSRVLLPLGCLAVVIAQFFHGPIEILLTIIGSLTLISGHFFHLKHEHCADQN”, the protein production result is reported as “failed”.

For the sequence “MSDSAIGVGYAADNPGWLIGMSETQERLQRLRAQAASLVFYAGILESATGRAFLELLDALSHQQPLAAVTAYSTWLGHLLASRQSWPQWLMHHIRSDDNPFSRQAQFAIASSLPEVWQQSACQDLQTLQQLASAPPRLLAPMVQALADLPTPPPHWLEETRDREAQWAETEDWAMLLPDLIQHYQQRGVGFFNRYWALRWQQGQLHGIEHPDPIPLSDLAGYELQKETLKRNTEFLLAGLPAQNVLLYGSCGAGKSSMVKALINAYGDRGLRLIEVGKADLRELPQILDQLRESALSFIVFVDDLSFEEDDETFKALKVVLEGGLTARPPNVVVYATSNRRHLVREYFDERPNPTEANEVHAWDSVQEKLSFSDRFGLTLTFEPADQDTYLAIVRHLASEVGLTMPLETLEFRARQWATRHNGRSGRTARQFMDWLIAEQSLPNPL”, the protein production result is “failed”.

Consider “MSDSLVVCEVDPELKETLRKFRFRKETNNAAIIMKVDKDRQMVVLEDELQNISPEELKLELPERQPRFVVYSYKYVHDDGRVSYPLCFIFSSPVGCKPEQQMMYAGSKNRLVQTAELTKVFEIRTTDDLTETWLKEKLAFFR”, for which the protein production entry is reported as “not failed”.

As for “MSDTLRPYKNLFPGIGQRVMIDTSSVVIGDVRLADDVGIWPLVVIRGDVNYVAIGARTNIQDGSVLHVTHKSSSNPHGNPLIIGEDVTVGHKVMLHGCTIGNRVLVGMGSIVLDGAIIEDDVMIGAGSLVPQHKRLESGYLYLGSPVKQIRPLSDAERSGLQYSANNYVKWKDDYLSQDNHIQP”, the protein production entry is recorded as “not failed”.
